Legend:
MotS (B. subtilis) = test: high-speed atomic force microscopy
[1] = molecular target: MotS_(D30A) (B. subtilis); test: high-speed atomic force microscopy

| stoichiometry N (MotS (B. subtilis)) | percent of particles with an unfolded conformation of MotSC [1] [%] | Substance |
| --- | --- | --- |
| 2 | – | MotS (natural protein) |
| – | 18 | MotS_(D30A) (natural protein) |

Source: PMC5665596
